Data on one substance can be found in patent US20240115704A1, “TREATMENT OF CANCER WITH NK CELLS AND A CD38-TARGETED ANTIBODY” (Artiva Biotherapeutics, Inc., priority 2021, published 2024).

For this assay, the target named is CD38 (human) (UniProt P28907). The experiment in a line: cell-based or functional assay.

Substance daratumumab (antibody) returned an ADCC (percent specific lysis) of MM.1R multiple myeloma cells by AB-101, 0.31:1 E:T, 2 µg/mL daratumumab, 4 h of 4.88%; an ADCC (percent specific lysis) of MM.1R multiple myeloma cells by AB-101, 10:1 E:T, 2 µg/mL daratumumab, 4 h of 42.4%; an ADCC (percent specific lysis) of MM.1S multiple myeloma cells by AB-101, 0.31:1 E:T, 2 µg/mL daratumumab, 4 h of 2.34%; an ADCC (percent specific lysis) of MM.1S multiple myeloma cells by AB-101, 10:1 E:T, 2 µg/mL daratumumab, 4 h of 19.8%. The substance further yielded an ADCC (percent specific lysis) of NCI-H929 multiple myeloma cells by AB-101, 0.31:1 E:T, 2 µg/mL daratumumab, 4 h of 3.38%; an ADCC (percent specific lysis) of NCI-H929 multiple myeloma cells by AB-101, 10:1 E:T, 2 µg/mL daratumumab, 4 h of 46.4%; an ADCC (percent specific lysis) of RPMI 8226 multiple myeloma cells by AB-101, 0.31:1 E:T, 2 µg/mL daratumumab, 4 h of 8.75%; an ADCC (percent specific lysis) of RPMI 8226 multiple myeloma cells by AB-101, 10:1 E:T, 2 µg/mL daratumumab, 4 h of 58.2%. In addition, the complement-dependent cytotoxicity of Daudi cells with human complement serum: daratumumab concentration at which lysis was saturated was < 0.41 µg/mL and the daratumumab-mediated ADCC (percent specific lysis) of Daudi cells by AB-101, 10:1 E:T, 2 µg/mL daratumumab, 4 h worked out at 79.5%.
